Two substances from publication PMC12013499 can be followed below.

Common to all, as to experiment: EMSA
What all share (conditions): EMSA: 0.5 pmol 32P-tRNA, 0-4 uM enzyme, 20 C, 10 min, 18.5% glycerol added, 5% native PAGE; buffer and pH not given (as in cited refs); n = 3

One data set deals with T1, AsuCCA (Ascaris suum).
T1 sequence: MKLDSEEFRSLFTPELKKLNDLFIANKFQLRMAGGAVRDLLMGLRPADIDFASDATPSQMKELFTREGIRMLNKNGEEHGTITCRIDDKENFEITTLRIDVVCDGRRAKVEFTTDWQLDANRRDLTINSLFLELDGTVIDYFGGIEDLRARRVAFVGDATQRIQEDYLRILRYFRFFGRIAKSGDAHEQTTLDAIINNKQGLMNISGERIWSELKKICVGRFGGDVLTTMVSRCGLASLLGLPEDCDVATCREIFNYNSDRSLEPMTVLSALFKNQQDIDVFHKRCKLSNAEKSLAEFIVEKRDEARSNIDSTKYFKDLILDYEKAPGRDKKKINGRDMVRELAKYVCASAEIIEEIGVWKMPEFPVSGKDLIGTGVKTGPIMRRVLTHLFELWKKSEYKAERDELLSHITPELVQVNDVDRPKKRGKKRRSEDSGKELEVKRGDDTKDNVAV

In data set [1] the test system is T2, AsuCCA-Hsaβ (Ascaris suum / Homo sapiens chimera).
T2 sequence: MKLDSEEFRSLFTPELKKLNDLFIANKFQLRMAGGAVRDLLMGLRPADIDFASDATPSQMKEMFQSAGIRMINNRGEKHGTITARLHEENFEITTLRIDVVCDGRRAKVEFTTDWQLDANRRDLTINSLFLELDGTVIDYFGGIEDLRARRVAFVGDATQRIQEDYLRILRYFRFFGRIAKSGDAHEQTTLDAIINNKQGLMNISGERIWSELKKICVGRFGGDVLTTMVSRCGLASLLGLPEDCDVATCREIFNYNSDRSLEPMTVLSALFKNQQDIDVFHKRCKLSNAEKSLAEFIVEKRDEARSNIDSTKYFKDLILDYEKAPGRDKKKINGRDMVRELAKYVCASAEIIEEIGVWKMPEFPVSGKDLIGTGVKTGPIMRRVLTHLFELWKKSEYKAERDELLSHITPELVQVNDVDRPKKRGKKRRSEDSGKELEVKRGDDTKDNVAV

For data set [2], the system named is T3, HsaCCA-AsuC40 (Homo sapiens / Ascaris suum chimera).
T3 sequence: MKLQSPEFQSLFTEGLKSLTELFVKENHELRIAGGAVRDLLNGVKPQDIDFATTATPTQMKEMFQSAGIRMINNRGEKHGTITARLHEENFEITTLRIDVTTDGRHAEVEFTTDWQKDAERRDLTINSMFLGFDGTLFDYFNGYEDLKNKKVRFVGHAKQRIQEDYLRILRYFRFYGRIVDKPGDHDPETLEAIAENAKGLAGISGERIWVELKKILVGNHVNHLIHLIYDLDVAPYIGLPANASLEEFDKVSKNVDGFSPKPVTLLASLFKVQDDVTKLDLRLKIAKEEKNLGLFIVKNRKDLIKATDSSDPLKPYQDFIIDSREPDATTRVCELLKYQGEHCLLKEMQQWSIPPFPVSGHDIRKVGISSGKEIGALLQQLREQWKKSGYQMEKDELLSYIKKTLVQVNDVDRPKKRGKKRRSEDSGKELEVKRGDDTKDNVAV

The test system of data set [3] is T4, RcuCCA (Romanomermis culicivorax).
T4 sequence: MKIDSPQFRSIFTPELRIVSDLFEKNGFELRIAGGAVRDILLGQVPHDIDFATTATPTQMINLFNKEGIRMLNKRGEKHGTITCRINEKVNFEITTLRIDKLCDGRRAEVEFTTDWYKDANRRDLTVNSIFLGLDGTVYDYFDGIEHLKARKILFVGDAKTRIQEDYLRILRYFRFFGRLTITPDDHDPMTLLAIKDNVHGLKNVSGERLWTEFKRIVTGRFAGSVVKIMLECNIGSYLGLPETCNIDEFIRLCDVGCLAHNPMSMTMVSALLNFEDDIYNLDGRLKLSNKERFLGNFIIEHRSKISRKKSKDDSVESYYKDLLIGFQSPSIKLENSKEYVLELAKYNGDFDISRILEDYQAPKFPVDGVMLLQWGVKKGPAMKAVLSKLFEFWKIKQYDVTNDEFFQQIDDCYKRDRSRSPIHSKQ

For data set [4], the system named is T5, AsuCCA ΔC40 delC-terminal 40 residues (Ascaris suum).
T5 sequence: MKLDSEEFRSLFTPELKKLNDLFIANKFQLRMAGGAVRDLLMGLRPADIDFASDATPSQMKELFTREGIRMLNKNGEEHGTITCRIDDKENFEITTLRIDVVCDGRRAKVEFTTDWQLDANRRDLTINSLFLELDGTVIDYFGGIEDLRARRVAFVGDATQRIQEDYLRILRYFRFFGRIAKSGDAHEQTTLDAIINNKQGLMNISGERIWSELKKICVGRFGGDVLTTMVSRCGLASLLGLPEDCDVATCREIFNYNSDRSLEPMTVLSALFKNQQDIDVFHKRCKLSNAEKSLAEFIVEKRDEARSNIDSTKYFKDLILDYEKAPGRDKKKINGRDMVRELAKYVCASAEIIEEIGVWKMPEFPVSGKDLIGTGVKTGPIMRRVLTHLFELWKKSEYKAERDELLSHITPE

A word on the Kd: it is the free concentration of one partner at which half of the binding sites on the other are occupied at equilibrium, for simple one-to-one binding. Read a high Kd as weaker binding. For Rcu mt-tRNAIle (armless), the Kd in the data set with AsuCCA (Ascaris suum) came out at 1100 nM; in data set [1], 300 nM; in data set [2], 600 nM; in data set [3], 1400 nM.

Turning to Sce tRNAPhe (canonical), the Kd is 500 nM with AsuCCA (Ascaris suum); 1700 nM in data set [4]; 300 nM in data set [1]; 700 nM in data set [2]; 1600 nM in data set [3].
